Results: article PMC9352346 (2022)

B1: Arl15-AL-Myc [human] / GST-Smad4 [not stated] (parent complex)
chain 1: MSDLRITEAFLYMDYLCFRALCCKGPPPARPEYDLVCIGLTGSGKTSLLSKLCSESPDNVVSTTGFSIKAVPFQNAILNVKELGGLDNIRKYWSRYYQGSQGVIFVLDSASSEDDLEAARNELHSALQHPQLCTLPFLILANHQDKPAARSVQEIKKYFELEPLARGKRWILQPCSLDDMDALKDSFSQLINLLEEKDHEAVRM
chain 2: MDNMSITNTPTSNDACLSIVHSLMCHRQGGESETFAKRAIESLVKKLKEKKDELDSLITAITTNGAHPSKCVTIQRTLDGRLQVAGRKGFPHVIYARLWRWPDLHKNELKHVKYCQYAFDLKCDSVCVNPYHYERVVSPGIDLSGLTLQSNAPSSMMVKDEYVHDFEGQPSLSTEGHSIQTIQHPPSNRASTETYSTPALLAPSESNATSTANFPNIPVASTSQPASILGGSHSEGLLQIASGPQPGQQQNGFTGQPATYHHNSTTTWTGSRTAPYTPNLPHHQNGHLQHHPPMPPHPGHYWPVHNELAFQPPISNHPAPEYWCSIAYFEMDVQVGETFKVPSSCPIVTVDGYVDPSGGDRFCLGQLSNVHRTEAIERARLHIGKGVQLECKGEGDVWVRCLSDHAVFVQSYYLDREAGRAPGDAVHKIYPSAYIKVFDLRQCHRQMQQQAATAQAAAAAQAAAVAGNIPGPGSVGGIAPAISLSAAAGIGVDDLRRLCILRMSFVKGWGPDYPRQSIKETPCWIEIHLHRALQLLDEVLHTMPIADPQPLD
B2: GFP-Smad4-WT [not stated] / GST-Arl15-AL [human] (parent complex)
chain 1: B1 chain 2
chain 2: B1 chain 1

Variants of: B1
Test: GST pull-down, immunoblot band quantification; HeLa cell lysates; bead-immobilized GST-Smad4; parent: 100

Row | percent of parent | Variant
1 | 93 | chain 1 D58N
2 | 87 | chain 1 R150H

Variants of: B2
Test: GST pull-down, immunoblot band quantification; HEK293T cell lysates; bead-immobilized GST-Arl15-AL; n=3; parent: 1; read off a plot

Row | ratio to parent | Variant
3 | ~1.1 | chain 1 R496H
4 | ~1 | chain 1 R497H
5 | ~1.1 | chain 1 M447K

More lines, now with the values behind:

Row | Variant | ratio to parent
6 | chain 1 H541Y | ~0.37
7 | chain 1 L495P | ~1.3
8 | chain 1 A532D | ~0.2
9 | chain 1 E538K | ~0.29
10 | chain 1 D493H | ~0.9
